Patent publication US20260108607A1 (BEIJING DCTY BIOTECH, published 2026)
Where two headings read alike, the source gives them in different places.

Tests used:
[1] = target: T1, EGFRvIII overexpressed on target cells (UniProt P00533 25-1210); assay: flow cytometry of the subclone supernatant on F98npEGFRvIII cells (Geom mean)
T1 construct: whole, on cells; Same protein on two cell lines: F98npEGFRvIII for flow cytometry, U87MG-EGFRvIII for the killing assays; also called F98npEGFRvIII; U87MG-EGFRvIII

[2] = target: T2, EGFR (wild type) expressed on target cells (UniProt P00533 25-1210, limits assumed); assay: flow cytometry of the subclone supernatant on F98npEGFR cells (Geom mean)
T2 construct: whole, on cells; also called F98npEGFR; U87MG-EGFR

[3] = target: T3, EGFRvIII target antigen (SPR ligand) (UniProt P00533 25-645, limits assumed); assay: SPR; antibody as analyte
T3 construct: also called EGFRvIII antigen

[4] = target: T3, EGFRvIII target antigen (SPR ligand); assay: SPR; antibody as analyte; remark: listed apart in the source

Row | Binder | binding result [1] | binding result [2] | Kd [3] [nM] | koff [3] [s⁻¹] | kon [3] [M⁻¹ s⁻¹] | also measured
1 | 20-2-25 (antibody, V domains shown, the antibody in the subclone supernatant, not the CAR m26; also called 70B6F6H11) VH: EVQLQQSGAELVRPGALVKLSCKASGFNIKDYYMHWVKQRPEQGLEWIGWIDPENGNTIYDPKFQGKASITADTSSNTAYLQLSSLTSEDTAVYYCARGYLVYWGQGTLVTVSA VL: not shown | binds | no binding |  |  |  | 
2 | 84C3G8H7-chimeric-scFv (20-2-28) (scFv, V domains shown) VH: EVQLQQSGAELVRPGALVKLSCKASGFNIKDYYMHWVKQRPEQGLEWIGWIDPENGNTIYDPKFQGKASITADTSSNTAYLQLSSLTSEDTAVYYCARGWFAYWGQGTLVTVSA VL: not shown |  |  | 59 | 0.00883 | 150000 | 
3 | 20-2-22 (antibody, V domains shown, also called 57D8C3) VH: EVQLQQSGAELVRPGALVKLSCKASGFNIKDYYMHWVKQRPEQGLEWIGWIDPENGNTIYDPKFQGKASITADTSSNTACLQLSSLTSEDTAVYYCARGWFAYWGQGTLVTVSA VL: DILMTQSPSSLAMSVGQKVTMSCKSSQSLLNSSNQKNHLAWYQQKPGQSPKLLVYFASTRQSGVPDRFIGSGSGTDFTLTISSVQAEDLADYFCQQHYSTPLTFGAGTKLELK | binds | no binding |  |  |  | 
4 | 20-2-10 (antibody, V domains shown, also called 75H11B1) VH: EVQLQQSGADLVRPGALVKLSCKASGFNIKDYYLHWVKQRPEQGLEWIGWIDPENGNTIYDPKFQGKASITADTSSNTAYLQLSSLTSEDTAVYYCARGYLTYWGQGTLVTVSA VL: DIVMTQSPSSLAMSVGQKVTMNCKSSQNLLNSSNQKNYLAWFQQKPGQSPKLLVYFASTRYSGVPDRFMGSGSGTDFTLTVSSVQAEDLADYFCQQHYSTPLTFGAGTKLELK | binds | no binding |  |  |  | 
5 | 20-2-16 (antibody, V domains shown, also called 90H3D2) VH: EVQLQQSGAELVRPGALVKLSCKASGFNIKDYYMHWVKQRPEQGLEWIGWIDPENGNTIYDPKFQGKATITADTSSNTAYLQLSSLTSEDTAVYYCARGYLVYWGQGTLVTVSA VL: not shown | binds | no binding |  |  |  | 
6 | 20-2-19 (antibody, V domains shown, also called 53H2H7 (recombinantly expressed)) VH: EVQLQQSGAELVRPGALVKLSCKASGFNIKDYYMHWVKQRPEQGLEWIGWIDPENGNTIYDPKFQGKASITADTSSNTAYLQLSSLTSEDTAVYYCARGYLAYWGQGTLVTVSA VL: not shown | binds | no binding |  |  |  | 
7 | 20-2-34 (antibody, V domains shown, the antibody in the subclone supernatant, not the CAR m28; also called 84G9F9) VH: EVQLQQSGAELVRPGALVKLSCKASGFNIKDYYMHWVKQRPEQGLEWIGWIDPENGNTIYDPKFQGKASITADTSSNTAYLQLSSLTSEDTAVYYCARGYLVYWGQGTLVTVSA VL: not shown | binds | no binding |  |  |  | 
8 | 20-2-31 (antibody, V domains shown, also called 95G10G8E4) VH: EVQLQQSGAELVRPGALVKLSCKASGFNIKDYYMHWVKQRPEQGLEWIGWIDPENGNTIYDPKFQGKASITADTSSNTAYLQLSSLTSEDTAVYYCARGYLVYWGQGTLVTVSA VL: not shown | binds | no binding |  |  |  | 
9 | chimeric-VH + VL of clone 20-2-40-2 (98G2E9) (antibody, V domains shown, also called clone #40-2) VH: EVLLVESGGGLVKPGGSLKLSCAASGFTFSGYAMSWVRQTPEKRLEWVATITSGGSYTYYPDSVKGRFTISRDNAKNTLYLQMSSLRSEDTAMYYCARKDYGNYWFAYWGQGTLVTVSA VL: DVVMTQTPLSLPVSLGDQASISCRSSQSLVHSDGNTYLHWYLQKPGQSPKLLIYKVSNRFSGVPDRFSGSGSGTDFTLKISRVEAEDLGVYFCSQTTQVPWTFGGGTKLEIK |  |  |  |  |  | Kd [4]: 49.9 nM; koff [4]: 0.00181 s⁻¹; kon [4]: 36200 M⁻¹ s⁻¹
10 | 20-2-55 (antibody, V domains shown, also called 136C11E7) VH: QIQLQQSGPELVKPGASVKISCKASGYSFTDYYINWVKQKPGQGLEWIGWIYPGSGNTKYNEKFKGKATLTVDTSSSTAYMQLNSLTSEDTAVYFCARSSRCDFWGQGTTLTVSS VL: DIQMTQSASSFSVSLGDSVTITCKASEDIYNRLAWYQQKPGNTPRLLISGATSLETGVPSRFSGSGSGKDYTLSITSLQTEDVATYYCQQYWSSPLTFGSGTKLELK | binds | no binding |  |  |  | 
11 | humanized antibody 28-H3 (84C3G8H7-VH3 + VL1) (scFv, the format in the SPR assay is not clearly stated) scFv: QVQLVQSGAEVKKPGASVKVSCKASGFNIKDYYMHWVRQAPGQRLEWIGWIDPENGNTIYDPKFQGRATITADTSASTAYMELSSLRSEDTAVYYCARGWFAYWGQGTLVTVSSGGGGSGGGGSGGGGSGGGGSDIVMTQSPDSLAVSLGERATINCKSSQSLLNSSNQKNHLAWYQQKPGQPPKLLIYFASTRASGVPDRFSGSGSGTDFTLTISSLQAEDVAVYYCQQHYSTPLTFGGGTKLELK |  |  | 167 | 0.0221 | 132000 | 
12 | 20-2-49 (antibody, V domains shown, also called 121E9D12) VH: QVQLQQSGAELAKPGASVKMSCKASAYTFTTYWMHWVKQRPGQGLEWIGYINPNTAYTEYNQNFKDKATLTADKSSSTAYMQLGSLTSEDSAVYYCARGAYYRTYYAMDYWGQGTSVTVSS VL: DIVLTQSPASLAVSLGQRATISCKASQSVDYDGDSYMNWYQQKPGQPPKLLIYAASNLESGIPARFSGSGSGTDFTLNIHPVEEEDAATYYCLQSNEDPYTFGGGTRLEIN | binds | no binding |  |  |  | 

Continued, in another order:

Row | binding result [1] | binding result [2] | Kd [3] [nM] | koff [3] [s⁻¹] | kon [3] [M⁻¹ s⁻¹] | Binder | also measured
13 |  | no binding |  |  |  | 20-2-37 (antibody, V domains shown, also called 98B10B12) VH: EVMLVESGGGLVKPGGSLKLSCAASRFTFSNYAMSWVRQTPEKRLEWVATITSGGSYTYYPDSVKGRFTISRDNAKNTLYLQMSSLRSEDTAMYYCARKDYGNYWFAYWGQGTLVTVSA VL: DVVMTQTPLSLPVSLGDQASISCRSSQSLVHSDGNTYLHWYLQKPGQSPKLLIYKVSNRFSGVPDRFSGSGSGTDFTLKISRVEAEDLGVYFCSQSIHVPWTFGGGTKLEIK | 
14 |  |  | 72.6 | 0.0103 | 142000 | humanized antibody 28-H8 (84C3G8H7-VH3 + VL2(PTM)) (scFv, the format in the SPR assay is not clearly stated) scFv: QVQLVQSGAEVKKPGASVKVSCKASGFNIKDYYMHWVRQAPGQRLEWIGWIDPENGNTIYDPKFQGRATITADTSASTAYMELSSLRSEDTAVYYCARGWFAYWGQGTLVTVSSGGGGSGGGGSGGGGSGGGGSDIVMTQSPDSLAVSLGERATINCKSSQSLLNSSNQKNHLAWYQQKPGQPPKLLVYFASTRGSGVPDRFSGSGSGTDFTLTISSLQAEDVAVYFCQQHYSTPLTFGGGTKLELK | 
15 |  |  | 80.3 | 0.00891 | 111000 | humanized antibody 28-H5 (84C3G8H7-VH4 + VL1) (scFv, the format in the SPR assay is not clearly stated) scFv: QVQLVQSGAEVKKPGASVKVSCKASGFNIKDYYMHWVKQAPGQRLEWIGWIDPENGNTIYDPKFQGRATITADTSANTAYMELSSLRSEDTAVYYCARGWFAYWGQGTLVTVSSGGGGSGGGGSGGGGSGGGGSDIVMTQSPDSLAVSLGERATINCKSSQSLLNSSNQKNHLAWYQQKPGQPPKLLIYFASTRASGVPDRFSGSGSGTDFTLTISSLQAEDVAVYYCQQHYSTPLTFGGGTKLELK | 
16 |  |  | 77.2 | 0.0112 | 146000 | humanized antibody 28-H7 (84C3G8H7-VH3 + VL1(PTM)) (scFv, the format in the SPR assay is not clearly stated) scFv: QVQLVQSGAEVKKPGASVKVSCKASGFNIKDYYMHWVRQAPGQRLEWIGWIDPENGNTIYDPKFQGRATITADTSASTAYMELSSLRSEDTAVYYCARGWFAYWGQGTLVTVSSGGGGSGGGGSGGGGSGGGGSDIVMTQSPDSLAVSLGERATINCKSSQSLLNSSNQKNHLAWYQQKPGQPPKLLIYFASTRGSGVPDRFSGSGSGTDFTLTISSLQAEDVAVYYCQQHYSTPLTFGGGTKLELK | 
17 |  |  | 47.5 | 0.00665 | 140000 | humanized antibody 28-H9 (84C3G8H7-VH4 + VL1(PTM)) (scFv, the format in the SPR assay is not clearly stated) scFv: QVQLVQSGAEVKKPGASVKVSCKASGFNIKDYYMHWVKQAPGQRLEWIGWIDPENGNTIYDPKFQGRATITADTSANTAYMELSSLRSEDTAVYYCARGWFAYWGQGTLVTVSSGGGGSGGGGSGGGGSGGGGSDIVMTQSPDSLAVSLGERATINCKSSQSLLNSSNQKNHLAWYQQKPGQPPKLLIYFASTRGSGVPDRFSGSGSGTDFTLTISSLQAEDVAVYYCQQHYSTPLTFGGGTKLELK | 
18 |  |  | 154 | 0.0206 | 134000 | humanized antibody 28-H4 (84C3G8H7-VH3 + VL2) (scFv, the format in the SPR assay is not clearly stated) scFv: QVQLVQSGAEVKKPGASVKVSCKASGFNIKDYYMHWVRQAPGQRLEWIGWIDPENGNTIYDPKFQGRATITADTSASTAYMELSSLRSEDTAVYYCARGWFAYWGQGTLVTVSSGGGGSGGGGSGGGGSGGGGSDIVMTQSPDSLAVSLGERATINCKSSQSLLNSSNQKNHLAWYQQKPGQPPKLLVYFASTRASGVPDRFSGSGSGTDFTLTISSLQAEDVAVYFCQQHYSTPLTFGGGTKLELK | 
19 | binds | no binding |  |  |  | 20-2-52 (antibody, V domains shown, also called 124A5F2) VH: QIQLVQSGPELKKPGETVKISCKASGYTFINYGMNWVKQTPGKGLKWMGWINTYTGEPTYADDFKGRFAFSLETSASTAYLQINNLKNEDMATYFCSREEFYSRGAMDYWGQGTSVTVSS VL: DVLMTQTPLSLPVSLGDQASISCRSSQFIVHSNGNTYLEWYLQKPGQSPKLLIYKISNRFSGVPDRFSGSGSGTDFTLKISRVEAEDLGVYYCFQGSHVPFTFGSGTKLEIK | 
20 |  | no binding |  |  |  | 20-2-43 (antibody, V domains shown, also called 115A10H4) VH: DVQLQESGPDLVKPSQSLSLNCTVTGYSITSGYSWHWIRQFPGNKLEWMGYIHYSGSTNYNPPLKSRIFIARDTSKNQFFLQLTSVTTEDTATYYCARGVVSNYAMGNWGQGTSVTVSS VL: ETTVTQSPASLSMAIGEKVTIRCITNTDIDDDMNWYQQKPGEPPKLLISEGNTLRPGVPSRFSSSGYGTDFVFTIENMLSEDVADYYCLQSDDLPLTFGSGTKLEIK | 
